Patent publication US20220403009A1

Experiments:
[1] = biological target: SARS-CoV-1 spike protein on HIV-based pseudovirus (SARS-CoV) (UniProt P59594); experiment: cell-based or functional assay
[2] = biological target: SARS-CoV-2 spike protein on pseudovirus (SARS-CoV-2) (UniProt P0DTC2); experiment: cell-based or functional assay

| Substance | Fold Over IgG1 (CoV-1) By Molar [1] | Fold Over IgG1 (CoV-1) By Weight [1] | IC50, SARS-CoV-1 pseudovirus neutralization [1] | IC50, SARS-CoV-2 pseudovirus neutralization [2] |
| --- | --- | --- | --- | --- |
| CR3014 IgG1 (antibody) | 1 fold | 1 fold | 0.068 µg/mL | > 100000 µg/mL |
| CR3014 IgM + J (antibody) | > 80 fold | > 13 fold | < 0.0051 µg/mL | > 100000 µg/mL |
